Experimental data reported in the supplement of paper PMC9170038.

Columns and labels:
MS2 coat protein [1] = assay: apparent KD of MS2 coat protein; designed switch direction (-1 OFF switch, 1 ON switch): 1; higher = weaker reporter binding; conditions: Eterna round: R98
Description: (§1)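 RNA-MaP: designed FMN/MS2 RNA switches (84 nt design region) are transcribed on-chip within common flanks and titrated with SNAP-549-labelled MS2 coat protein (about 1-3000 nM) in 100 mM Tris pH 7.5, 80 mM KCl, 4 mM MgCl2, without or with 200 uM FMN. Median apparent KD per design; activation ratio = KD,OFF / KD,ON.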

MS2 coat protein [2] = assay: apparent KD of MS2 coat protein; higher = weaker reporter binding; conditions: Eterna round: R101
Description: as §1

MS2 coat protein [3] = assay: apparent KD of MS2 coat protein; designed switch direction (-1 OFF switch, 1 ON switch): -1; higher = weaker reporter binding; conditions: Eterna round: R98
Description: as §1

Sequence	apparent KD of MS2 coat protein (MS2 coat protein [1]; input ligand: FMN 200 uM)	apparent KD of MS2 coat protein (MS2 coat protein [1]; input ligand: none)	apparent KD of MS2 coat protein (MS2 coat protein [2]; input ligand: FMN 200 uM)	apparent KD of MS2 coat protein (MS2 coat protein [2]; input ligand: none)	further results
AAAUAAAAUAUAGGAUAUGGAAACAUGAGGAUCACCCAUGUAAAAUAAGAUAAAUAAUAAUAUAGCCAGAAGGAUAAAAUAUAA [LRO004_SS NG 2]	34.5 nM	27.6 nM			
UAUUAAAGGUGAGGAUAUGCACAGGAUCACCGUGUAGAAGGCAUCAGGUAGAAGGUGCAGAGGAUCACCCUGUAAGGAUAUAUC [pwkr2 ssNG1 DX.10]	191 nM	1080 nM			
CCUGCACCUCAAGGAUAUCCAGUCGUUUCGACUGGAGAAGGUGAGGAUCACCCACCUAGCCUGACGUUUGUCAGGCAUGCAGGU [#AddUracilToBrourdLoops 1 - Jieux - Exclusion NG1] (puzzle (switch architecture): Exclusion NG 1)			49.5 nM	27 nM	
GCAGAAGGUGCGGAGGAUCACCCUGUAAGGAUAUGCAUUAGCAAGGAUAUACAGAGGAUCACCCUGUAGAAGGUGCACUAUUCU [pwkr2 ssNG3 DX.4]	1230 nM	1450 nM			
GUACGGAUCAUAGGAUAUCUGCCGGCCGGAGUUAGAGAAGGGUGAUCUAGGAUGCCACAUGAGGAUCACCCAUGUCAACAUCGC [Vemati]	20.9 nM	24.2 nM			
GCGGGAUGAGUCGUUGGUUCACAUGAGGAUCACCCAUGUAGGGAGGAUAUGCAUCUGGUCCCGGAGCAGAAGGCCCUGCAUCGA [Raedxea]					apparent KD of MS2 coat protein (MS2 coat protein [3]; input ligand: FMN 200 uM): 1540 nM; apparent KD of MS2 coat protein (MS2 coat protein [3]; input ligand: none): 555 nM
AAUAAACAAUAAAAGAGUCCACGAAACUUUUGAGGAUCACCCAGAAGGGCUGAGGUAAUACCUCAGCAGGAUAUGGACGUGGAC [#SharedSequence IExNG# - 3] (puzzle (switch architecture): Inverted Exclusion NG 3)			86.8 nM	12.4 nM	
UCGGUUUUCGCAGGAUAUGGAGGAUAUUCCCACAUGAGCAUCAGCCAUGUCUGCAUGGAAGAAGGCCAGAAGGGCGAGAACCGA [United States 1 - Jieux - Same State NG 2]	11.1 nM	13.6 nM			
GGUACUCAAAGAGUACCAAUACGAACAUGAGGAUCACCCAUGUAGGAUAUGCUACUCAAAGAGUAGCAGAAGGACAUGUGCCUU [salish99_ExNG3_020 #endbits investigation] (puzzle (switch architecture): Exclusion NG 3)			92.3 nM	15.1 nM	
GCUGCUAUCGCAGGAUAUUACAUGGGAAAUAAUACAUGAGGAUCACCCAUGUAAAAUAUCGUAAAUAAGAAGGGCGAUAGCAGC [Lame State 4 - Jieux - Same State NG 2]	239 nM	1210 nM			
GUGCCUUGGGAGAAGGAUAAUUAAUAAUAAAUAAAAGGAUAUUCAUACCGGAAACGGACAUGAGGAUCACCCAUGUGGCACAAA (puzzle (switch architecture): Inverted Same State NG 1)			45.4 nM	186 nM	
UUAUAAAAUAUAGGAUAUGGAAACAUGAGGAUCACCCAUGUAUGAUAAGAUAAAUUAUGAUAUAGCCAGAAGGAUACAAUAUAU [LRO011_SS NG 2]	28.9 nM	28 nM			
AAAUAAAUCGAAGGAUAUCAGGGUGCACCUCAGUAAAACUGAGGUGCACCCUGAGAAGGUCGAGGAUCACCCGAUCUAAAUAAA [#SharedSequence SLExNG1: 2-2] (puzzle (switch architecture): Small Loop Exclusion NG 1)			114 nM	19.3 nM	
GUAGCUAUCGGAGGAUAUUCAUACCGGAAACGGACAUGAGGAUCACCCAUGUGGCGAAAGCCUUGGGAGAAGGCCGAUAGCUAC [#DoubleMagnetSystem - jl-sng2-2.23 Eli mod] (puzzle (switch architecture): Same State NG 2)			7.49 nM	215 nM	
CAAUUGGCACAGAAGGGUGACAUGAGGAUCACCCAUGUAGCGUGGCAUUCAGGAAGAGCCACGCCACAGGAUAUGUGCGGGCAC [Rigeri] (puzzle (switch architecture): Inverted Same State NG 2)			31.9 nM	24.7 nM	
AAAUAACUUGAAGGAUAUGACCCUCGAGGUGACUAAAAGUCACCUCGAGGGUCAGAAGGUCGAGGAUCACCCGACCUAGUGAAA [#SharedSequence SLExNG1: 7-1] (puzzle (switch architecture): Small Loop Exclusion NG 1)			7.61 nM	7.54 nM	
UCAGUAGAGUCAGGAUAUACAAAAGGCGGUCCAUACAUGAGGAUCACCCAUGUAGAAGGGACUCUACUGUAAGUCGGAAACGAC [#StaticStemDeletion - Eli x2 4.005] (puzzle (switch architecture): Small Loop Exclusion NG 1)			15.6 nM	329 nM	

Sequence	apparent KD of MS2 coat protein (MS2 coat protein [1]; input ligand: FMN 200 uM)	apparent KD of MS2 coat protein (MS2 coat protein [1]; input ligand: none)	apparent KD of MS2 coat protein (MS2 coat protein [2]; input ligand: FMN 200 uM)	apparent KD of MS2 coat protein (MS2 coat protein [2]; input ligand: none)	further results
CCUUGAUAAUAUCUUCACAUGAGGAUCACCCAUGUCGCUCGACAGGAUAUAUUUUAUUUGUUUAAGUAGAAGGGUCGCAGAUUC [LRO020_SS NG 3]	142 nM	136 nM			
UUAUAAUUAAGAGGAUAUAUACAACAUGAGGAUCACCCAUGUACCCAUGUAGUAGAAGGCUUAUUUUUAUAUAAUAAUAUAAUU [AstrosLoopssng1#9] (puzzle (switch architecture): Small Loop Same State NG 1)			40 nM	148 nM	
AGACCUGCUCAGAAGGCGUGUGCGAGGCUGGAAACAGCCUCGAAUUAAAAUCUUCGAGGAUCACCCGAGGAUAUGAGCAGGUCA [#SharedSequence - IExNG2: 20] (puzzle (switch architecture): Inverted Exclusion NG 2)			59.7 nM	11.3 nM	
GUGCGAGCCACAGGAUAUCUACAGAUUUUUUGUAGAGAAGGGUGACCUCGUGCACCACAUGAGGAUCACCCAUGUAACUAGGCG [Bianeren]	24.5 nM	82.1 nM			
AAAACAUGAGGAUCACCCAUGUAAAGAUCGGUUAAUAGAAGUGAGGAUAUACUAAAUUUUAGGUAGUAGAAGGCACUGGGUACA [JR_SSNG3_Sub034]	28.1 nM	23.1 nM			
CUUAGUUUGUAGAAGGGUGACAUGAGGAUCACCCAUGUGCGUCGCCUGAAAGACCAGGGUACGCCACAGGAUAUACAAAGUAAG [Ororzati] (puzzle (switch architecture): Inverted Same State NG 2)			88.2 nM	58 nM	
AAAGAUUUUCAAGGAUAUCAGUGGCAAAGCCACUGAGAAGGUGAGGAUCACCCACCUACGUGACGCUGGAAACAGCGUCACGAA [#SharedSequence ExNG1 - 26] (puzzle (switch architecture): Exclusion NG 1)			64.5 nM	21 nM	
ACUUUAUUUGAGAAGGUGAAGUGGAAACAUGAGGAUCACCCAUGUAAUACGAAGCGUAUUUUUAUCAAGGAUAUCAAAUAAAGA [WHB=ISS-NG2-MS2FAR3 #bad] (puzzle (switch architecture): Inverted Same State NG 2)			7.58 nM	10.7 nM	
UUUUUAUUUAUAGGAUAUGGAGACAUGAGGAUCACCCAUGUAUGAUAAGAUAAAUUAUGAUGUGGCCAGAAGGAUAUUAUUUUU [LRO018_SS NG 2]	85.5 nM	76.4 nM			
GCUUGCGACGAAGGAUAUGGGUGCCUAAACACGAGGAUCACCCGUGUACAGGAAGCUAAAUGCUCUCAGAAGGUCGUCGCAGGC [United States 10 - Jieux - Same State NG 2]	18.4 nM	36 nM			
CGAGACACUUGAGGAUAUGCUCAGGAUAACUGAGCAGAAGGCAGGGAAACCUGAGGAUCACCCAGGUAACUGGAAAGUCUCGAA [Same State NG1 - A3C, U17G Submission 5B]	46.3 nM	144 nM			
UUAUUAUGUGUAGGAUAUGCGUAUUAUUAUUAUGCAGAAGGACAUGAGGAUCACCCAUGUAUAUUAUUAUUAUAUAUUAUAUAU (puzzle (switch architecture): Exclusion NG 1)			19.1 nM	14.7 nM	
GGAGACCUCACAGGAUAUGCUGGACUUUGUCCAGCAGAAGGGUGAACAUGAGGAUCACCCAUGUAAAUGGUCUCCAAAUUUAAU [Denovo 55]	33.4 nM	389 nM			
GGAGGUCACAUUUACAUGAGGAUCACCCAUGUCGAAAGACAUGAGGAUAUGCUACCUAAUUGGUAGCAGAAGGCAUGGACCUCC [Mat - Same State NG 3 - JL Mod - D28]	226 nM	287 nM			
AAUAAAACUCAAGGAUAUGACUCCGAAACGGAGUCAGAAGGUGAGGAUCACCCACCUAGCUCAGCGUCGAAAGACGCUGAGCAA [#SharedSequence ExNG1 - 32] (puzzle (switch architecture): Exclusion NG 1)			42 nM	9.01 nM	
UAUUAUAUAUAGAAGGACAUGAGGAUCACCCAUGUCGCCGGGCCCGGGAAACCGGGCCCGGCCAUGUAGGAUAUAUAUAUAGUA [#This is a good prank 9] (puzzle (switch architecture): Inverted Exclusion NG 2)			7.72 nM	5.35 nM	
UGAUCGCUUGGAGGAUAUCCAACUAUCCUAGUUGGAGAAGGCCAAGCUACAGAGCUAAGCUUGGAAGUCACUUCCGAUCAACAC [pwkr ssNG1 F9.4.2]	54.9 nM	33.6 nM			
